Target: alpha-thrombin (Homo sapiens) (UniProt P00734+P00734)
Test: SPR
Settings: apparent
[1] = DNA segments joined 3'-3' by a single phosphodiester (inverted polarity; second segment given 5'-3'), solution competition vs immobilized consensus aptamer, same buffer, 25 C
[2] = DNA segments joined 3'-3' through glycerol phosphodiester linker L2 (both segments given 5'-3'), solution competition vs immobilized consensus …, same buffer, 25 C

Sequence: GGTTGGTTGGTTGGTT [Compound 6]
- Kd (DNA segments joined 3'-3' through hexaethylene glycol phosphodiester linker L1 (both segments given 5'-3'), solution competition vs immobilized consensus aptamer, same buffer, 25 C): 10 nM

Sequence: GGTTGGTTGGGTTGGTT [Compound 3]
- Kd [1]: 11 nM

Sequence: GGTTGGTGGTTGGT [Compound 8]
- Kd [2]: 29 nM

Sequence: GGTTGGTGGTTGGT [Compound 5]
- Kd (DNA segments joined 3'-3' through hexaethylene glycol phosphodiester linker L1 (both segments given 5'-3'), solution competition vs immobilized consensus aptamer, 80 nM thrombin, 20 mM Tris-acetate, 140 mM NaCl, 5 mM KCl, 1 mM CaCl2, 1 mM MgCl2, pH 7.4 …): 9 nM

Sequence: GGTTGGTTGGTTGGTT [Compound 9]
- Kd [2]: 19 nM

Sequence: GGTTGGGGTTGG [Compound 11 (uni-directional)]
- Kd (hexaethylene glycol phosphodiester linker L1 between 3' end of first and 5' end of second segment (normal polarity), solution competition vs immobilized consensus aptamer, same buffer, 25 C): 29 nM

Sequence: TGGTTGGTGGTTGG [Compound 7]
- Kd (DNA segments joined 5'-5' through hexaethylene glycol phosphodiester linker L1 (both segments given 5'-3'), solution competition vs immobilized consensus aptamer, same buffer, 25 C): 23 nM

Sequence: TTGGTTGGTTGGTTGG [Compound 4]
- Kd (DNA segments joined 5'-5' by a single phosphodiester (inverted polarity; both segments given 5'-3'), solution competition vs immobilized consensus aptamer, same buffer, 25 C): 25 nM

Sequence: GGTTGGTGGGTTGGT [Compound 1]
- Kd [1]: 224 nM

Sequence: GGTTGGTTGGTTGGTT [Compound 2]
- Kd [1]: 312 nM
